Test results reported in paper PMC8048981 (2021).
Bridge positions count the residues as written; N and C are the ends.

Biological target: MDM2 (Homo sapiens, UniProt Q00987)
Assay: fluorescence polarization

Sequence of MDM2 (Q00987 whole entry): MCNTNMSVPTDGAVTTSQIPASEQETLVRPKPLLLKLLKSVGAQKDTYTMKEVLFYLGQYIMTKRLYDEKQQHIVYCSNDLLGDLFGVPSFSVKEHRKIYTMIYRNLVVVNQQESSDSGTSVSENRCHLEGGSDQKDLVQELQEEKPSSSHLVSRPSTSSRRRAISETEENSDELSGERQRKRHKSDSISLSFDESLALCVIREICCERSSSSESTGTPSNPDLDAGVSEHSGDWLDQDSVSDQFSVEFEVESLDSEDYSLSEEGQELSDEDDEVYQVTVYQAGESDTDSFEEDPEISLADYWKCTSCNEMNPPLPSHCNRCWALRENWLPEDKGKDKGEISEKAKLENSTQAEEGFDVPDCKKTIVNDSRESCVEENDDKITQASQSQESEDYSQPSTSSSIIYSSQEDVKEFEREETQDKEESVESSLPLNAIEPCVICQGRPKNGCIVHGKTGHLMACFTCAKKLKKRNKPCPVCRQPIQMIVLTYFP

Binder | Kd [nM]
{5(6)‑carboxyfluorescein}-QSQQTFCNLWRLLKQN-NH2 (linker 7-14 via para‑phenyl thioalkyne amide (reagent 9a)) [stapled p53-derived peptide 29a'] | 29
{5(6)‑carboxyfluorescein}-QSQQTFCNLWRLLKQN-NH2 [linear p53-derived peptide 28'] | 346
